From patent US7517850B2, “Calcium phosphate nanoclusters and their applications” (priority 1999, dated 2009)
Where two headings read alike, the source gives them in different places. Ends that are not written are not given here.

Key:
[1] = Test for nanocluster formation (absence of precipitation); assay type: physicochemical; conditions: standard conditions for β-casein phosphopeptide nanoclusters modified to the smallest extent; absence of precipitation = nanocluster-like particles
From the text: Nanocluster formation was investigated with the following phosphoproteins, phosphoprotein mixtures, phosphopeptides and phosphopeptide mixtures: • 1. Whole casein • 2. Mixtures of β- and κ-caseins • 3. β-casein 5P • 4. A commercial phosphopeptide mixture supplied by MD foods and derived from casein, containing a large number of phosphopeptides as described by Ellegard et al. (1999). • 5. A phosphopeptide mixture derived from a digestion of whole casein with protease XIV from Streptomyces griseus, and papain type IV containing αs1-casein 2P (f46-51), αs1-casein 4P (f61-70), β-casein 4P (f11-21), αs2-casein 3P (f5-12), αs2-casein 4P (f49-61) and αs2-casein 2P (f126-133). • 6. β-casein phosphopeptides 4P (f1-25) or 4P (f2-25) or 5P (f1-42) • 7. Cyanogen bromide cleavage fragments αs1-casein 2P (f1-54) or αs1-casein 6P (f61-123). • […]. Tryptic phosphopeptides αs1-casein 1P (f104-119) or αs1-casein 2P (f43-58) or αs1-casein 5P (f59-79) or αs1-casein 7P (f43-79)
A test for nanocluster formation was applied in which the standard conditions for the formation of nanoclusters from the β-casein phosphopeptide were modified to the smallest extent possible and applied to the other peptides or peptide mixtures. […] Nanoclusters were found with each of the 6 phosphopeptides and confirmed experimentally by X-ray scattering measurements.

[2] = Confirmation of nanocluster formation by small angle X-ray or neutron scattering; assay type: physicochemical
From the text: The formation of nanoclusters, nanocluster-like particles or larger particles composed of assemblies of nanoclusters has been established by small angle X-ray or neutron scattering experiments, as described by Holt et al. (1996, 1998).

[3] = small angle X-ray or neutron scattering; Holt et al., 1996, 1998; cited from earlier work

Molecule | outcome of test for nanocluster formation [1] | Conclusion (nanocluster formation) [2] | Conclusion (nanocluster formation) [3]
αs1-casein 1P (f104-119): tryptic phosphopeptide of αs1-casein, item 8 (YKVPQLEIVPNSAEER; also: 1 phosphorylation, site not given here; UniProt P02662 119-134, looked up, fragment) | No stable nanocluster solution was formed | Precipitation of calcium phosphate | –
αs1-casein 2P (f1-54): cyanogen bromide cleavage fragment of αs1-casein, item 7 (RPKHPIKHQGLPQEVLNENLLRFFVAPFPEVFGKEKVNELSKDIGSESTEDQAM; also: 2 phosphorylations, sites not given here; UniProt P02662 16-69, looked up, fragment) | failed to dissolve | – | –
αs1-casein 2P (f43-58): tryptic phosphopeptide of αs1-casein, item 8 (DIGSESTEDQAMEDIK; also: 2 phosphorylations, sites not given here; UniProt P02662 58-73, looked up, fragment) | No stable nanocluster solution was formed | Precipitation of calcium phosphate | –
αs1-casein 5P (f59-79): tryptic phosphopeptide of αs1-casein, item 8 (QMEAESISSSEEIVPNSVEQK; also: 5 phosphorylations, sites not given here; UniProt P02662 74-94, looked up, fragment) | Nanoclusters were formed | Clear solution of stable nanoclusters in the normal | –
αs1-casein 7P (f43-79): tryptic phosphopeptide of αs1-casein, item 8 (DIGSESTEDQAMEDIKQMEAESISSSEEIVPNSVEQK; also: 7 phosphorylations, sites not given here; UniProt P02662 58-94, looked up, fragment) | Nanoclusters were formed | Clear solution of stable nanoclusters in the normal | –
β-casein phosphopeptide 4P (f1-25): β-casein phosphopeptide residues 1-25 with 4 phosphorylated residues, item 6 (RELEELNVPGEIVESLSSSEESITR; also: 4 phosphorylations, sites not given here; UniProt P02666 16-40, looked up, fragment) | – | – | Monodisperse nanoclusters formed (Holt et al., 1996,
β-casein phosphopeptide 4P (f2-25): β-casein phosphopeptide residues 2-25 with 4 phosphorylated residues, item 6 (ELEELNVPGEIVESLSSSEESITR; also: 4 phosphorylations, sites not given here; UniProt P02666 17-40, looked up, fragment) | – | Monodisperse nanoclusters formed | –
β-casein phosphopeptide 5P (f1-42): β-casein phosphopeptide residues 1-42 with 5 phosphorylated residues, item 6 (RELEELNVPGEIVESLSSSEESITRINKKIEKFQSEEQQQTE; also: 5 phosphorylations, sites not given here; UniProt P02666 16-57, looked up, fragment) | – | – | Monodisperse nanoclusters formed (Holt et al., 1996,
β-casein 5p: β-casein phosphoprotein with 5 phosphorylated residues, item 3 (protein, UniProt P02666 16-224, looked up, 5 phosphorylations, β-casein phosphoprotein with 5 phosphorylated residues, item 3) Beta-casein: RELEELNVPGEIVESLSSSEESITRINKKIEKFQSEEQQQTEDELQDKIHPFAQTQSLVYPFPGPIPNSLPQNIPPLTQTPVVVPPFLQPEVMGVSKVKEAMAPKHKEMPFPKYPVEPFTESQSLTLTDVENLHLPLPLLQSWMHQPHQPLPPTVMFPPQSVLSLSQSKVLPVPQKAVPYPQRDMPIQAFLLYQEPVLGPVRGPFPIIV | underwent an unlimited aggregation | Uncontrolled precipitation of the β-casein aggregates | –
